Tested on: O=C(Cc1cccs1)N[C@@H]1C(=O)N2C(C(=O)O)=C(/C=C/c3ccc([N+](=O)[O-])cc3[N+](=O)[O-])CS[C@H]12
Assay: steady-state hydrolysis kinetics with purified PenA
Assay type: biochemical, Burkholderia multivorans

With “PenA β-lactamase (Burkholderia multivorans ATCC 17616)” the Km was 147 ± 15 µM and the kcat/Km was 3.2e+06 ± 300000 M⁻¹ s⁻¹.

From article PMC5560099
